Reference: publication PMC8068094

Experiments:
[1] = biological target: Munc13L with C-terminal Halo tag (Munc13-1 residues 529-1735, C1-C2B-MUN-C2C domains, residues 1408-1452 replaced by EF) (UniProt Q62768); assay: two-colour step-bleaching of co-clusters on a supported lipid bilayer
[2] = biological target: Munc13L with C-terminal Halo tag (Munc13-1 residues 529-1735, C1-C2B-MUN-C2C domains, residues 1408-1452 replaced by EF) (UniProt Q62768); assay: two-colour TIRF co-localisation on a supported lipid bilayer

stoichiometry N (mole SNAP25/mole Munc13L) [1]: 0.8
Manders' coefficient (SNAP25:Munc13L) at 50 nM Munc13L [2]: 0.2
Manders' coefficient (SNAP25:Munc13L) at 1 μM Munc13L [2]: 0.6
Manders' coefficient at 1 μM Munc13L [2]: 0.7
Substance: single-cysteine (S28C) version of SNAP25^WT labeled with AlexaFluor555 (from UniProt P60879 1-206) (natural protein)
